Target: full-length Hsp70 (UniProt P0DMV8 1-641)
Test: NMR titration

full-length Hsp70, sequence (P0DMV8 whole entry): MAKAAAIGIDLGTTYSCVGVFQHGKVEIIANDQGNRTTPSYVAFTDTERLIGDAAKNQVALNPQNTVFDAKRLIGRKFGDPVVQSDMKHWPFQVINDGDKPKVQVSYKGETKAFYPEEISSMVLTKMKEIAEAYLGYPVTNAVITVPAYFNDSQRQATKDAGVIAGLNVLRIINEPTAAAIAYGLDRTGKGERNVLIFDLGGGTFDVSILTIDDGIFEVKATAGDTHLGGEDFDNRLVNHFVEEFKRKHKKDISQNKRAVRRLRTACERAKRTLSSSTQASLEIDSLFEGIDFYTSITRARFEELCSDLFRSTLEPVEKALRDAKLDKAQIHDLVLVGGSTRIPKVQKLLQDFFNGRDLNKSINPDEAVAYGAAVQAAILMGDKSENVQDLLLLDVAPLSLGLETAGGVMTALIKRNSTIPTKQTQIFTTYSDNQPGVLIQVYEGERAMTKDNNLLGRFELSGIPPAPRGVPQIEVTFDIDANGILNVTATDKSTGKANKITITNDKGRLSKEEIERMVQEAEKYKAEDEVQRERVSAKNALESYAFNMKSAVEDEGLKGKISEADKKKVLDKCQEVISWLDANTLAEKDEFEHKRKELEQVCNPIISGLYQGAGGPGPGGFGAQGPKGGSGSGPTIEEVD

binding result: binds
B1: FUS-LC (residues 1-163) (domain or fragment, UniProt P35637 1-163, looked up)
chain: MASNDYTQQATQSYGAYPTQPGQGYSQQSSQPYGQQSYSGYSQSTDTSGYGQSSYSSYGQSQNTGYGTQSTPQGYGSTGGYGSSQSSQSSYGQQSSYPGYGQQPAPSSTSGSYGSSSQSSSYGQPQSGSYSQQPSYGGQQQSYGQQQSYNPPQGYGQQNQYNS
